Results from patent US20220362278A1, “RENAL TARGETING-TYPE DRUG DELIVERY CARRIER HAVING EXCELLENT BIODEGRABILITY” (priority 2019, published 2022).

Tests used:
[1] = Acute kidney toxicity after administration; format: in vivo, ddY mouse; conditions: positive control, 8 mg/kg s.c., bred for 2 days
Protocol: The severity of renal damage was evaluated from the plasma creatinine level and plasma urea nitrogen concentration 6 days after the start of administration. The plasma creatinine concentration was measured using a commercially available measurement kit (LabAssay, manufactured by Wako Pure Chemical Industries, Ltd.). Plasma urea nitrogen concentration was measured using a commercially available measurement kit (DIUR-100, manufactured by BioAssySystem). Mercury chloride was subcutaneously injected at 8 mg/kg, the group bred for 2 days was used as a positive control, and the results were compared.

[2] = Mean particle size and zeta potential by Zetasizer Nano ZS; format: physicochemical; conditions: for physicochemical properties (particle size and zeta potential) of the labeled compound versus the unlabeled compound: stated in words
From the text: 1.1 equivalents of Boc-Ser(t-Bu)-OH (manufactured by Watanabe Chemical Industries, Ltd.), 1.1 equivalents of 1-[bis(dimethylamino)methylene]-1H-benzotriazolium 3-oxide hexafluorophosphate (HBTU) (manufactured by Merck Millipore), 1.1 equivalents of anhydrous 1-hydroxy-1H-benzotriazole (HOBt) (manufactured by Watanabe Chemical Industries, Ltd.) and 2.2 equivalents of N,N-diisopropyl ethylamine (DIPEA), each to the total number of amino groups of poly-L-lysine hydrobromide (manufactured by Sigma-Aldrich Co. LLC., P6516-100M, number average molecular weight: 4000-15000) were mixed in DMF/DMSO (1:1). Then, the reaction mixture was reacted by stirring at room temperature until the ninhydrin test yielded negative results on TLC analysis. After completion of coupling, this solution was purified by precipitation with diethylether three times. The precipitates thereof were dissolved in a trifluoroacetic acid (TFA) cocktail (95% TFA, 2.5% […] (TIS) and 2.5% purified water) to deprotect the Boc group and t-Bu group (protecting group of oxygen atom of serine). Then, the reaction mixture was incubated at room temperature for 90 min. After completion of deprotection, the reaction mixture was purified by precipitation with diethylether three times.

[3] = system: B16-BL6/Luc cells; assay: Renal cell carcinoma proliferation suppressive activity in renal cell carcinoma model mouse; format: in vivo, C57BL/6J mouse
Protocol: The renal cell carcinoma model was produced by injecting firefly luciferase gene-labeled B16-BL6 cells (B16-BL6/Luc cells, 2.5×10^5 cells) together with Matigel (registered trade mark) Matrix in the renal cortex of the right kidney of C57BL/6J mouse. […] 14 days after tumor inoculation, 2.5 mg of D-Luciferin was intraperitoneally injected into the mouse under anesthesia by intraperitoneal injection of triple anesthesia (medetomidine (0.3 mg/kg), midazolam (2 mg/kg), butorphanol (2.5 mg/kg)), and imaged using LAS-4000 IVIS Imaging System (FUJIFILM, Japan). Then, the mouse was euthanized, the kidneys were isolated, and the luciferase activity in the tissue was measured with a luminometer (Lumat LB9507, EG&G Berthold, Bad Wild-bad, Germany). From the obtained luciferase activity, the number of cancer cells in the kidney was calculated using a regression line. In addition, the body weight of the mouse was measured immediately after the tumor inoculation administration and 14 days after the tumor inoculation.

[4] = Releasability of serine and biodegradability: PD-10 fractionation of kidney homogenate radioactivity; conditions: 3 hr after intravenous administration
Protocol: The kidney after blood removal was immediately ice-cooled, purified water (4 mL) was added and homogenized. A saturated potassium chloride solution (1 mL) was added to the prepared kidney homogenate, and the mixture was allowed to stand at 4° C. overnight and then centrifuged. The centrifuged supernatant (1 mL) was developed on a PD-10 column with 0.1 M acetate buffer (pH 6.0), and the radioactivity of the fraction was measured.

Compound: [Cl][Hg][Cl] [mercury chloride, Mercury chloride]
- plasma creatinine level ([1]; FIG. 8(A)): increase
- plasma urea nitrogen concentration ([1]; FIG. 8(B)): increase
- histological section of kidney tissue ([1]; FIG. 8(C)): infiltration and necrosis of inflammatory cells and damaged cells were observed

Compound: FITC-labeled serine-modified poly-L-lysine [FITC-labeled compound (Ia)]
- physicochemical properties (particle size and zeta potential) of the labeled compound versus the unlabeled compound [2]: the same as those of compound (Ia)

Compound: ^90Y-labeled serine-modified poly-L-lysine [^90Y-labeled compound (Ia)]
- luciferase luminescence derived from cancer cells ([3]; 14 days after tumor inoculation, vs PBS, FIG. 9(B)): remarkably suppressed as compared with that of mouse administered with PBS
- growth of the number of cancer cells in the kidney ([3]; i.v. immediately after tumor inoculation, 14 days after inoculation, vs PBS, FIG. 9(A)): remarkably suppressed
- body weight of mouse ([3]; immediately after and 14 days after tumor inoculation, FIG. 9(C)): did not affect

Compound: ^111In-labeled PAMAM(G3)
- mean particle size ([2]; PBS (pH 7.4), 1 mg/mL): 4.20±0.09 nm
- zeta potential ([2]; PBS (pH 7.4), 1 mg/mL): 4.56±0.81 mV
- physicochemical properties (particle size and zeta potential) of the labeled compound versus the unlabeled compound [2]: also the same

Compound: ^111In-labeled poly-L-lysine
- physicochemical properties (particle size and zeta potential) of the labeled compound versus the unlabeled compound [2]: the same as those of poly-L-lysine
- decomposition in the kidney [4]: easily decomposed in the kidney
- radioactivity in high / low molecular weight fraction, kidney homogenate ([4]; PD-10 column): mainly on the low molecular weight fraction side

Compound: ^111In-labeled serine-modified PAMAM(G3)
- physicochemical properties (particle size and zeta potential) of the labeled compound versus the unlabeled compound [2]: also the same

Compound: ^111In-labeled serine-modified poly-L-lysine [^111In-labeled compound (Ia)]
- physicochemical properties (particle size and zeta potential) of the labeled compound versus the unlabeled compound [2]: the same as those of compound (Ia)
